tested on: Escherichia coli TOP10; experiment: shrunken log2 fold change of peptide-encoding DNA abundance (4.5 h post-induction vs induction); higher = less antimicrobial activity (less host growth inhibition); details: time post-induction: 4.5 h; library: site-saturation at positions 5, 18, 19, 20
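Note: peptides expressed intracellularly from a pBAD plasmid library in pooled LB shake-flask culture, induced with 0.3% L-arabinose, DNA abundance read by NGS, three biological replicates, DESeq2 with apeglm shrinkage.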

Sequence	shrunken log2 fold change
RRIRWRPPRLPRPRPRPLWFPRP	0.134
RRIRTRPPRLPRPRPRPHIPPRP	-0.769
RRIRIRPPRLPRPRPRPFRLPRP	-0.223
RRIRGRPPRLPRPRPRPSGEPRP	0.598
RRIRNRPPRLPRPRPRPDDEPRP	-0.00101
RRIRVRPPRLPRPRPRPSHWPRP	0.182
RRIRKRPPRLPRPRPRPDWPPRP	0.168
RRIRFRPPRLPRPRPRPCSGPRP	-0.427
RRIRQRPPRLPRPRPRPGAGPRP	0.451
RRIRRRPPRLPRPRPRPHDGPRP	-0.0863
RRIRDRPPRLPRPRPRPGFSPRP	0.0888
RRIRSRPPRLPRPRPRPQASPRP	0.552
RRIRLRPPRLPRPRPRPTCAPRP	0.314
RRIRSRPPRLPRPRPRPAPRPRP	0.845
RRIRHRPPRLPRPRPRPVYNPRP	-0.303
RRIRTRPPRLPRPRPRPIFDPRP	-0.337
RRIRTRPPRLPRPRPRPTVAPRP	0.22
RRIRLRPPRLPRPRPRPSTVPRP	-0.938
RRIRKRPPRLPRPRPRPYRNPRP	0.00408
RRIRPRPPRLPRPRPRPTWSPRP	0.324
RRIRQRPPRLPRPRPRPFLSPRP	0.024
RRIRMRPPRLPRPRPRPRYAPRP	0.467
RRIRHRPPRLPRPRPRPPISPRP	-0.378
RRIRTRPPRLPRPRPRPFIWPRP	-0.485
RRIRERPPRLPRPRPRPCIVPRP	-0.427

Sequence	shrunken log2 fold change
RRIRQRPPRLPRPRPRPTYLPRP	-0.562
RRIRCRPPRLPRPRPRPKHIPRP	-0.443
RRIRLRPPRLPRPRPRPTDMPRP	-0.633
RRIRWRPPRLPRPRPRPINWPRP	0.0481
RRIRFRPPRLPRPRPRPALGPRP	0.423
RRIRERPPRLPRPRPRPCFRPRP	-0.511
RRIRFRPPRLPRPRPRPALTPRP	0.248
RRIRGRPPRLPRPRPRPVLDPRP	0.419
RRIRDRPPRLPRPRPRPPWIPRP	-0.29
RRIRRRPPRLPRPRPRPLVSPRP	0.153
RRIRPRPPRLPRPRPRPEHIPRP	0.149
RRIRQRPPRLPRPRPRPSPKPRP	-0.143
RRIRKRPPRLPRPRPRPSTWPRP	-0.18
RRIRWRPPRLPRPRPRPPQPPRP	0.66
RRIRQRPPRLPRPRPRPWCIPRP	0.0342
RRIRMRPPRLPRPRPRPGLMPRP	0.518
RRIRYRPPRLPRPRPRPREYPRP	0.0168
RRIRQRPPRLPRPRPRPPDQPRP	1.82
RRIRFRPPRLPRPRPRPTSNPRP	-0.617
RRIRWRPPRLPRPRPRPLYWPRP	-0.34
RRIRFRPPRLPRPRPRPLMSPRP	-0.0355
RRIRARPPRLPRPRPRPRFFPRP	0.453
RRIRRRPPRLPRPRPRPRGYPRP	0.398
RRIRKRPPRLPRPRPRPYTPPRP	-0.344
RRIRYRPPRLPRPRPRPRWAPRP	-0.0106

Sequence	shrunken log2 fold change
RRIRDRPPRLPRPRPRPSTHPRP	-0.247
RRIRVRPPRLPRPRPRPVNYPRP	0.0937
RRIRLRPPRLPRPRPRPSWGPRP	0.00407
RRIRGRPPRLPRPRPRPGPSPRP	1.05
RRIRRRPPRLPRPRPRPHFPPRP	0.553
RRIRMRPPRLPRPRPRPSWLPRP	0.0725
RRIRHRPPRLPRPRPRPTKCPRP	-0.0314
RRIRYRPPRLPRPRPRPQHCPRP	-0.0601
RRIRTRPPRLPRPRPRPTVGPRP	0.155
RRIRHRPPRLPRPRPRPSIHPRP	-0.924
RRIRYRPPRLPRPRPRPNRIPRP	-0.815
RRIRNRPPRLPRPRPRPHHWPRP	-0.0959
RRIRRRPPRLPRPRPRPKWCPRP	0.431
RRIRWRPPRLPRPRPRPQHWPRP	0.0364
RRIRGRPPRLPRPRPRPGLGPRP	1.67
RRIRERPPRLPRPRPRPTVEPRP	-0.0686
RRIRIRPPRLPRPRPRPFGEPRP	-0.202
RRIRIRPPRLPRPRPRPCGRPRP	0.0552
RRIRFRPPRLPRPRPRPIDWPRP	-0.0094
RRIRARPPRLPRPRPRPHEWPRP	0.311
RRIRKRPPRLPRPRPRPSDVPRP	-0.157
RRIRIRPPRLPRPRPRPNLYPRP	-0.565
RRIRRRPPRLPRPRPRPGGDPRP	0.48
RRIRFRPPRLPRPRPRPQPGPRP	0.152
RRIRFRPPRLPRPRPRPEGTPRP	0.055
